{"source": "patent US11491212", "proteins": {"B1": {"name": "FIXa R318Y/R338E/T343R (protein)", "chain 1": "not shown", "chain 2": "not shown"}, "B2": {"name": "FIXa Y155F/R318Y/T343R/R403E (protein)", "chain 1": "not shown", "chain 2": "not shown"}, "B3": {"name": "FIXa Y155F/T343R/R403E/E410N (protein)", "chain 1": "not shown", "chain 2": "not shown"}, "B4": {"name": "FIXa Y155F/K247N/N249S/R318Y/R338E/T343R (protein)", "chain 1": "not shown", "chain 2": "not shown"}, "B5": {"name": "FIXa K247N/N249S/R318Y/R338E/T343R (protein)", "chain 1": "not shown", "chain 2": "not shown"}, "B6": {"name": "FIXa Y155F/K247N/N249S/T343R/E410N (protein)", "chain 1": "not shown", "chain 2": "not shown"}, "B7": {"name": "FIXa Y155F/K247N/N249S/R403E/E410N (protein)", "chain 1": "not shown", "chain 2": "not shown"}, "B8": {"name": "FIXa Y155F/R338E/T343R/E410N (protein)", "chain 1": "not shown", "chain 2": "not shown"}, "B9": {"name": "FIXa Y155F/R318Y/T343R/E410N (protein)", "chain 1": "not shown", "chain 2": "not shown"}, "B10": {"name": "FIXa R318Y/T343R/E410N (protein)", "chain 1": "not shown", "chain 2": "not shown"}, "B11": {"name": "FIXa K228N/R318Y/R338E/T343R/R403E/E410N (protein)", "chain 1": "not shown", "chain 2": "not shown"}, "B12": {"name": "FIXa K228N/K247N/N249S/R318Y/R338E/T343R/R403E (protein)", "chain 1": "not shown", "chain 2": "not shown"}, "B13": {"name": "FIXa K228N/K247N/N249S/R318Y/R338E/T343R/E410N (protein)", "chain 1": "not shown", "chain 2": "not shown"}}, "key": {"[1]": {"molecular_target": "Factor X (FX), P00742", "sequence (P00742 whole entry, looked up)": "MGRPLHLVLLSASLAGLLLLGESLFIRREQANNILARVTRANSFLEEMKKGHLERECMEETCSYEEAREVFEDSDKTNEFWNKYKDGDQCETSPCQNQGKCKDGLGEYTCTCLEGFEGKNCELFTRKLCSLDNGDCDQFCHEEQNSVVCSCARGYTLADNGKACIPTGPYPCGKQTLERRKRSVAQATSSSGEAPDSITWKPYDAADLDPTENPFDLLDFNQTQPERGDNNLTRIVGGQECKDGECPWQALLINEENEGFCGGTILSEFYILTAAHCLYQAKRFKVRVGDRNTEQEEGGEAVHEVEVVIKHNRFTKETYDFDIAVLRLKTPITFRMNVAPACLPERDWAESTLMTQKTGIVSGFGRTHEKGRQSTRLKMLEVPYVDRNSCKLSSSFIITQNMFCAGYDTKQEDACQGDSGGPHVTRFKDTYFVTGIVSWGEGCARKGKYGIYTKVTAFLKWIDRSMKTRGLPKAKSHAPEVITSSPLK"}, "[2]": {"molecular_target": "Factor X, P00742", "sequence (P00742 whole entry, looked up)": "as above"}}}
{"protein": "B1", "values": [{"measurement": "kcat (s^-1), activation of FX by FIXa in the Xase complex", "setting": "[1]", "value": 4.5, "unit": "s⁻¹"}, {"measurement": "% of WT kcat/KM", "setting": "[2]", "value": 324, "unit": "%"}, {"measurement": "kcat/KM", "setting": "[2]", "value": "1.5e+08", "unit": "M⁻¹ s⁻¹"}]}
{"protein": "B2", "values": [{"measurement": "kcat (s^-1), activation of FX by FIXa in the Xase complex", "setting": "[1]", "value": 5, "unit": "s⁻¹"}, {"measurement": "% of WT kcat/KM", "setting": "[2]", "value": 154, "unit": "%"}, {"measurement": "kcat/KM", "setting": "[2]", "value": "7.1e+07", "unit": "M⁻¹ s⁻¹"}]}
{"protein": "B3", "values": [{"measurement": "kcat (s^-1), activation of FX by FIXa in the Xase complex", "setting": "[1]", "value": 6.6, "unit": "s⁻¹"}, {"measurement": "% of WT kcat/KM", "setting": "[2]", "value": 321, "unit": "%"}, {"measurement": "kcat/KM", "setting": "[2]", "value": "1.5e+08", "unit": "M⁻¹ s⁻¹"}]}
{"protein": "B4", "values": [{"measurement": "kcat (s^-1), activation of FX by FIXa in the Xase complex", "setting": "[1]", "value": 8.5, "unit": "s⁻¹"}, {"measurement": "% of WT kcat/KM", "setting": "[2]", "value": 772, "unit": "%"}, {"measurement": "kcat/KM", "setting": "[2]", "value": "3.6e+08", "unit": "M⁻¹ s⁻¹"}]}
{"protein": "B5", "values": [{"measurement": "kcat (s^-1), activation of FX by FIXa in the Xase complex", "setting": "[1]", "value": 8, "unit": "s⁻¹"}, {"measurement": "% of WT kcat/KM", "setting": "[2]", "value": 840, "unit": "%"}, {"measurement": "kcat/KM", "setting": "[2]", "value": "3.9e+08", "unit": "M⁻¹ s⁻¹"}]}
{"protein": "B6", "values": [{"measurement": "kcat (s^-1), activation of FX by FIXa in the Xase complex", "setting": "[1]", "value": 7.9, "unit": "s⁻¹"}, {"measurement": "% of WT kcat/KM", "setting": "[2]", "value": 599, "unit": "%"}, {"measurement": "kcat/KM", "setting": "[2]", "value": "2.8e+08", "unit": "M⁻¹ s⁻¹"}]}
{"protein": "B7", "values": [{"measurement": "kcat (s^-1), activation of FX by FIXa in the Xase complex", "setting": "[1]", "value": 2.7, "unit": "s⁻¹"}, {"measurement": "% of WT kcat/KM", "setting": "[2]", "value": 53, "unit": "%"}, {"measurement": "kcat/KM", "setting": "[2]", "value": "2.4e+07", "unit": "M⁻¹ s⁻¹"}]}
{"protein": "B8", "values": [{"measurement": "kcat (s^-1), activation of FX by FIXa in the Xase complex", "setting": "[1]", "value": 6, "unit": "s⁻¹"}, {"measurement": "% of WT kcat/KM", "setting": "[2]", "value": 761, "unit": "%"}, {"measurement": "kcat/KM", "setting": "[2]", "value": "3.5e+08", "unit": "M⁻¹ s⁻¹"}]}
{"protein": "B9", "values": [{"measurement": "kcat (s^-1), activation of FX by FIXa in the Xase complex", "setting": "[1]", "value": 5, "unit": "s⁻¹"}, {"measurement": "% of WT kcat/KM", "setting": "[2]", "value": 326, "unit": "%"}, {"measurement": "kcat/KM", "setting": "[2]", "value": "1.5e+08", "unit": "M⁻¹ s⁻¹"}]}
{"protein": "B10", "values": [{"measurement": "kcat (s^-1), activation of FX by FIXa in the Xase complex", "setting": "[1]", "value": 3.2, "unit": "s⁻¹"}, {"measurement": "% of WT kcat/KM", "setting": "[2]", "value": 135, "unit": "%"}, {"measurement": "kcat/KM", "setting": "[2]", "value": "6.2e+07", "unit": "M⁻¹ s⁻¹"}]}
{"protein": "B11", "values": [{"measurement": "kcat (s^-1), activation of FX by FIXa in the Xase complex", "setting": "[1]", "value": 10.5, "unit": "s⁻¹"}, {"measurement": "% of WT kcat/KM", "setting": "[2]", "value": 593, "unit": "%"}, {"measurement": "kcat/KM", "setting": "[2]", "value": "2.7e+08", "unit": "M⁻¹ s⁻¹"}]}
{"protein": "B12", "values": [{"measurement": "kcat (s^-1), activation of FX by FIXa in the Xase complex", "setting": "[1]", "value": 10.9, "unit": "s⁻¹"}, {"measurement": "% of WT kcat/KM", "setting": "[2]", "value": 636, "unit": "%"}, {"measurement": "kcat/KM", "setting": "[2]", "value": "2.9e+08", "unit": "M⁻¹ s⁻¹"}]}
{"protein": "B13", "values": [{"measurement": "kcat (s^-1), activation of FX by FIXa in the Xase complex", "setting": "[1]", "value": 4.7, "unit": "s⁻¹"}, {"measurement": "% of WT kcat/KM", "setting": "[2]", "value": 278, "unit": "%"}, {"measurement": "kcat/KM", "setting": "[2]", "value": "1.3e+08", "unit": "M⁻¹ s⁻¹"}]}
